Measured values reported in patent US20260207759A1, “COMPOSITION OF CD40-BINDING MOLECULE AND PHARMACEUTICAL USE THEREOF” (SUZHOU SUNCADIA BIOPHARMACEUTICALS CO., LTD., priority 2022, published 2026).
Read-outs that look alike come from different tables or passages of the source.

Tests used:
[1] = biological target: human CD40 on the cell surface (Raji cells, HEK-Blue CD40L cells, primary human B cells and DCs) (human) (UniProt P25942); assay: flow cytometry (FACS) binding to Raji cells
[2] = biological target: human CD40 on the cell surface (Raji cells, HEK-Blue CD40L cells, primary human B cells and DCs) (human) (UniProt P25942); assay: flow cytometry (FACS) binding to Raji cells; remark: listed apart in the source
[3] = biological target: his-tagged human CD40 recombinant protein (h-CD40-his, Acrobiosystems Cat. #CD0-H5228) (human) (UniProt P25942); assay: SPR (Biacore), antibody captured on anti-human Fc chip, His-tagged CD40 as analyte, 1:1 model
[4] = biological target: human CD40 on the cell surface (Raji cells, HEK-Blue CD40L cells, primary human B cells and DCs) (human) (UniProt P25942); assay: cell-based or functional assay

his-tagged human CD40 recombinant protein (h-CD40-his, Acrobiosystems Cat. #CD0-H5228) (human), sequence (P25942 21-193 limits assumed): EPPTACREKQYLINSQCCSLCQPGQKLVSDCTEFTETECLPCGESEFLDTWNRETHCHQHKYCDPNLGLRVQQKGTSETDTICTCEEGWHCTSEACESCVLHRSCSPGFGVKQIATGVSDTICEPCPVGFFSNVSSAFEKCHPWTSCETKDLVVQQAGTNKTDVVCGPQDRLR
human CD40 on the cell surface (Raji cells, HEK-Blue CD40L cells, primary human B cells and DCs) (human), sequence (P25942 21-277): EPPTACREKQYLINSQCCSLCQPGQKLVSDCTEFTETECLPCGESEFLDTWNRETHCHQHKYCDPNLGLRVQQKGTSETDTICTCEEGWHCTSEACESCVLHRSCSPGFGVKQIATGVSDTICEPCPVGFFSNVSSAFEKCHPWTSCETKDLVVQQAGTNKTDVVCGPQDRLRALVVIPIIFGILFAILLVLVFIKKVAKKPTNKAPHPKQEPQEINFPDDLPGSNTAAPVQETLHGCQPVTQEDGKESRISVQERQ

EC50 [1]: 2.41 nM
EC50 [2]: 1.01 nM
Kd [3]: 0.205 nM
koff [3]: 0.000141 s⁻¹
kon [3]: 688000 M⁻¹ s⁻¹
B cell activation assay, CD19+CD69+ %, IC50 [4]: 0.14 nM
B cell activation assay, CD19+CD69+ %, maximum inhibition rate [4]: 95%
B cell activation assay, CD19+CD69+ MFI, IC50 [4]: 0.07 nM
B cell activation assay, CD19+CD69+ MFI, maximum inhibition rate [4]: 110%
IC50 for the inhibition of CD40 reporter gene cell activity (Experiment 1) [4]: 0.36 nM
IC50 for the inhibition of CD40 reporter gene cell activity (Experiment 2) [4]: 0.35 nM
IC50 in DC cell activation assay system, CD80 MFI [4]: 1.19 nM
IC50 in DC cell activation assay system, CD86 MFI [4]: 1.93 nM
IC50 in DC cell activation assay system, IL-12/23 p40 [4]: 0.68 nM
IC50 in DC cell activation assay system, TNFα [4]: 0.35 nM
Reporter gene cell activity IC50 (SEAP, HEK-Blue CD40L cells stimulated with CD40L) [4]: 0.272 nM
Substance: CFZ533 (iscalimab), anti-CD40 antagonistic antibody, positive control
